Values of other authors, collected in publication PMC2645917 (Journal of medicinal chemistry, 2008).

Conditions: in vivo, iv

In the case of exenatide, the “Half-life after i.v. injection” value is given as 26 min.
